Source: US20220098289A1 (CONSEJO SUPERIOR DE INVESTIGACIONES CIENT FICAS, published 2022)

Target: T1, human Aβ1-42 peptides (human, UniProt P05067 672-713)
T1 construct: domain: Aβ1-42; Synthetic peptide prepared to obtain minimal aggregation; also called Aβ peptides
Experiment: recombinant proteins mixed in vitro for 24 hrs at 37° C., then Western blot
Experimental: Protein-protein binding assays. Nanomolar concentrations of recombinant human SFRP1 (RD cat: 5396-SF-025) and human Aβ1-42 peptides (Invitrogen, cat: 03-111, prepared to obtain minimal peptide aggregation) were mixed in protein Lobind tubes (Eppendorf) for 24 hrs at 37° C. NuPAGE LDS sample buffer (4×) was added to the tubes, boiled for 5 min and subjected to Western blot analysis. Microplate-based solid-phase protein-protein binding assays was performed by immobilizing in wells 200 ng/well of either human Aβ1-42 peptides, BSA, used as a […] control because previously described as an Aβ interactor; or heparin, a described SFRP1 binding partner. Immobilization was performed overnight at 4° C. The wells were then washed with TBS 3× and incubated with two different SFRP1 concentrations for 2 hrs at RT. In the converse experiment, BSA, heparin or SFRP1 were immobilized overnight at 4° C. and two different concentrations of Aβ1-42 were added for 2 hrs at RT. The wells were washed 6× in TBS and 2× sample buffer containing β-mercaptoethanol was added to the well. The content was recovered by scrapping, boiled for 5 min and analyzed by SDS-PAGE followed by WB using anti-Sfrp1 or anti-Aβ antibodies, respectively.

T1 sequence (P05067 672-713 limits assumed): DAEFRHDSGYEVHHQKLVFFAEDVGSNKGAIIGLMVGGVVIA

- binding result: binds
B1: human recombinant SFRP1 (other, UniProt Q8N474 32-314, looked up)
chain: SEYDYVSFQSDIGPYQSGRFYTKPPQCVDIPADLRLCHNVGYKKMVLPNLLEHETMAEVKQQASSWVPLLNKNCHAGTQVFLCSLFAPVCLDRPIYPCRWLCEAVRDSCEPVMQFFGFYWPEMLKCDKFPEGDVCIAMTPPNATEASKPQGTTVCPPCDNELKSEAIIEHLCASEFALRMKIKEVKKENGDKKIVPKKKKPLKLGPIKKKDLKKLVLYLKNGADCPCHQLDNLSHHFLIMGRKVKSQYLLTAIHKWDKKNKEFKNFMKKMKNHECPTFQSVFK
notes: Bought recombinant protein; also called hSFRP1; recombinant hSFRP1
